Measured values from publication PMC2195846.

Target: Full-length Daxx linked to the Gal4 DNA binding domain (pAS2-1-Daxx) (mouse) (UniProt O35613)
Assay: two-hybrid

UniProt O35613, sequence (O35613 whole entry, the tested form may be a part): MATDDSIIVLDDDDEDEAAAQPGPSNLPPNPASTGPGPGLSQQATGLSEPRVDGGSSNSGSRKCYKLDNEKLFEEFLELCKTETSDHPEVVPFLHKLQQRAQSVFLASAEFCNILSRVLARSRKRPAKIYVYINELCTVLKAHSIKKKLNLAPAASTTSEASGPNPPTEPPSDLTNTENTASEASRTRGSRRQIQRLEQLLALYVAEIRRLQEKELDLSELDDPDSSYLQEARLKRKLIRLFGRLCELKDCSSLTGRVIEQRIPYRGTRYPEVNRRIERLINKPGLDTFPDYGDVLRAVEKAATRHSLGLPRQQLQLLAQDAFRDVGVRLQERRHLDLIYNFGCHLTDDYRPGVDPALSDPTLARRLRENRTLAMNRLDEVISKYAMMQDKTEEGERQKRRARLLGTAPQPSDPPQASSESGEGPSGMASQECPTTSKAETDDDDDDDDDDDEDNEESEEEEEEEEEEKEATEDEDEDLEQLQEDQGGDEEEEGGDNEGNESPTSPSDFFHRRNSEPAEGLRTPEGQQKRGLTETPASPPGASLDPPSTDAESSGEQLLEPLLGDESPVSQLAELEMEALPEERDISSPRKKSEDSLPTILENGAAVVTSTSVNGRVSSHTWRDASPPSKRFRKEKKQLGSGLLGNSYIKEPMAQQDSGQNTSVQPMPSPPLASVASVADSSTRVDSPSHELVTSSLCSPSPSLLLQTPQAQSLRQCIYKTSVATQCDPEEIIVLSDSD

β-galactosidase expression, fold over the single-transformed colonies: 50 fold
Substance: Full-length PML linked to the Gal4 activation domain (pACT-2-PML) (from UniProt P29590 1-882) (natural protein)
